US9175305B2, “Mutant hydroxyphenylpyruvate dioxygenase polypeptides and methods of use” (Syngenta Participations AG, priority 2009, dated 2015)
Positions count from the first letter of the chain named. Names may count otherwise.

B1: S415K: S415K mutant of SEQ ID NO:14 (protein)
chain: MPPTPATATGAAAAAVTPEHAARSFPRVVRVNPRSDRFPVLSFHHVELWCADAASAAGRFSFALGAPLAARSDLSTGNSAHASLLLRSGALAFLFTAPYAPPPQEAATAATASIPSFSADAARTFAAAHGLAVRSVGVRVADAAEAFRVSVAGGARPAFAPADLGHGFGLAEVELYGDVVLRFVSYPDETDLPFLPGFERVSSPGAVDYGLTRFDHVVGNVPEMAPVIDYMKGFLGFHEFAEFTAEDVGTTESGLNSVVLANNSEAVLLPLNEPVHGTKRRSQIQTYLEYHGGPGVQHIALASNDVLRTLREMRARTPMGGFEFMAPPQAKYYEGVRRIAGDVLSEEQIKECQELGVLVDRDDQGVLLQIFTKPVGDRPTFFLEMIQRIGCMEKDEVGQEYQKGGCGGFGKGNFKELFKSIEDYEKSLEVKQSVVAQKS
modifications: mutant HPPD polypeptide
B2: E416Q: E416Q mutant of SEQ ID NO:14 (protein)
chain: B1 chain with K415S, E416Q
modifications: mutant HPPD polypeptide
B3: L269F: L269F mutant of SEQ ID NO:14 (protein)
chain: B1 chain with L269F, K415S
modifications: mutant HPPD polypeptide
B4: V258I: V258I mutant of SEQ ID NO:14 (protein)
chain: B1 chain with V258I, K415S
modifications: mutant HPPD polypeptide
B5: S420A: S420A mutant of SEQ ID NO:14 (protein)
chain: B1 chain with K415S, S420A
modifications: mutant HPPD polypeptide
B6: T372S: T372S mutant of SEQ ID NO:14 (protein)
chain: B1 chain with T372S, K415S
modifications: mutant HPPD polypeptide
B7: V258A: V258A mutant of SEQ ID NO:14 (protein)
chain: B1 chain with V258A, K415S
modifications: mutant HPPD polypeptide
B8: I299M: I299M mutant of SEQ ID NO:14 (protein)
chain: B1 chain with I299M, K415S
modifications: mutant HPPD polypeptide
B9: G254A: G254A mutant of SEQ ID NO:14 (protein)
chain: B1 chain with G254A, K415S
modifications: mutant HPPD polypeptide
B10: A326S: A326S mutant of SEQ ID NO:14 (protein)
chain: B1 chain with A326S, K415S
modifications: mutant HPPD polypeptide
B11: I421L: I421L mutant of SEQ ID NO:14 (protein)
chain: B1 chain with K415S, I421L
modifications: mutant HPPD polypeptide
B12: S415Q: S415Q mutant of SEQ ID NO:14 (protein)
chain: B1 chain with K415Q
modifications: mutant HPPD polypeptide
B13: G254S: G254S mutant of SEQ ID NO:14 (protein)
chain: B1 chain with G254S, K415S
modifications: mutant HPPD polypeptide
B14: L269M: L269M mutant of SEQ ID NO:14 (protein)
chain: B1 chain with L269M, K415S
modifications: mutant HPPD polypeptide
B15: SEQ ID #18: SEQ ID NO:14 with substitution of T for I within the sequence motif SQIQTY (protein, listed as Avena sativa)
chain: B1 chain with I284T, K415S
B16: SEQ ID #14: HPPD derived from Avena sativa; single deletion variant of the Avena sativa HPPD (protein)
chain: B1 chain with K415S
modifications: mutant HPPD polypeptide
B17: SEQ ID #22: SEQ ID NO:14 with substitution of M for L within the sequence motif SGLNS (protein, listed as Avena sativa)
chain: B1 chain with L255M, K415S
B18: SEQ ID #24: SEQ ID NO:14 with substitution of M for L within the sequence motif G(I,V)LVDRD (protein, listed as Avena sativa)
chain: B1 chain with L358M, K415S
B19: SEQ ID #21: SEQ ID NO:14 with substitution of V for I within the sequence motif SQIQTY (protein, listed as Avena sativa)
chain: B1 chain with I284V, K415S
B20: SEQ ID #26: SEQ ID NO:14 with M for L within G(I,V)LVDR and M for L within SGLNS (protein, listed as Avena sativa)
chain: B1 chain with L255M, L358M, K415S
B21: V217I: V217I mutant of HPPD SEQ ID NO:14 (protein)
chain: B1 chain with V217I, K415S
modifications: mutant HPPD polypeptide
B22: L281I: mutant of HPPD SEQ ID NO:14, called L271I in the text (protein)
chain: B1 chain with L271I, K415S
modifications: mutant HPPD polypeptide
B23: M325L: M325L mutant of HPPD SEQ ID NO:14 (protein)
chain: B1 chain with M325L, K415S
modifications: mutant HPPD polypeptide
B24: K411T: K411T mutant of HPPD SEQ ID NO:14 (protein)
chain: B1 chain with K411T, K415S
modifications: mutant HPPD polypeptide
B25: L281V: mutant of HPPD SEQ ID NO:14, called L271V in the text (protein)
chain: B1 chain with L271V, K415S
modifications: mutant HPPD polypeptide
B26: A326R: A326R mutant of HPPD SEQ ID NO:14 (protein)
chain: B1 chain with A326R, K415S
modifications: mutant HPPD polypeptide
B27: L358M: L358M mutant of HPPD SEQ ID NO:14 (apparently the change of SEQ ID NO:24) (protein)
chain: B1 chain with L358M, K415S
modifications: mutant HPPD polypeptide

test: catalytic activity and herbicide resistance of mutants of SEQ ID NO:14 in extracts; type: biochemical, Avena sativa; conditions: not given
Text: These further mutations can all be optionally combined with the resistance conferring mutations to produce catalytically active variants of HPPD herbicide resistant enzymes of the current invention.

Molecule	catalytic activity and resistance to sulcotrione relative to control, unmutated SEQ ID NO:14
B1	neutral mutations
B2	neutral mutations
B3	neutral mutations
B4	neutral mutations
B5	neutral mutations
B6	neutral mutations
B7	neutral mutations
B8	neutral mutations
B9	neutral mutations
B10	neutral mutations
B11	neutral mutations
B12	neutral mutations
B13	neutral mutations
B14	neutral mutations

test: Km and kcat of expressed HPPDs (HPLC/UV quantitation of homogentisate); type: biochemical, Avena sativa; conditions: HPPDs expressed in extracts; 25° C., pH 7.0
Description: The assay solution was transferred to Chromacol 03-CVG HPLC vials, sealed and the amount of homogentisate formed in a 40 μl aliquot determined by injection onto a reverse phase Aqua C18 5μ 75×4.6 mm HPLC column running 5.5% acetonitrile 0.1% TFA (Buffer A) at 1.5 ml/min. The column was eluted at 1.5 ml/minute using a 2 minute wash in buffer A, followed by a 2 minute wash in a 30/70 mixture of buffer A and 100% Acetonitrile, and a further 3.5 minute wash in buffer A. The elution of homogentisate was monitored by UV at 292 nm and the amount formed in each reaction quantified by comparison with a standard calibration curve.
Km and Vmax values were determined (for example FIG. 1) using a non linear least squares fit using Grafit 4™ software (Erithacus Software, Middlesex, UK). Kcat values were determined by dividing the maximum rate, Vmax expressed in nmol/second by the number of nmoles of HPPD enzyme (based on the concentration determined by active-site titration).
Experiments were carried out as described for Table 4. ‘Sulc’ denotes sulcotrione and ‘nd’ means ‘no data’. For V217I, L271I, L271V, V258M and A326R, the relative values of kcat were estimated from comparisons of the initial rates in cell extracts of similarly prepared and expressed HPPDs in conventional enzyme activity assays at pH 7.0, 25° C. and at a substrate concentration of 120 μM HPP.

Molecule	Km [µM]
B15	36
B16	5.38
B17	12.4
B18	4.74
B19	5.98
B20	10.6

same assay, conditions: HPPDs expressed in extracts; 25° C., pH 7.0; one active-site per dimer assumed

Molecule	kcat [s⁻¹]
B15	17.94
B16	6.46
B17	5.79
B18	4.35
B19	5.47
B20	4.05

same assay, conditions: for V217I, L271I, L271V, V258M, A326R estimated from initial rates in cell extracts, pH 7.0, 25° C., 120 μM HPP

Molecule	Rate: kcat relative to non-mutated HPPD SEQ ID NO:14
B21	1.1
B16	1
B22	1.7
B23	1.2
B24	1
B25	2
B26	1.2
B27	0.7
